Results as given in patent publication EP3529371B1.
Read-outs that look alike come from different tables or passages of the source.

B1: BoNT/F1 (recombinant, activated full-length) (enzyme)
chain: MPVVINSFNYNDPVNDDTILYMQIPYEEKSKKYYKAFEIMRNVWIIPERNTIGTDPSDFDPPASLENGSSAYYDPNYLTTDAEKDRYLKTTIKLFKRINSNPAGEVLLQEISYAKPYLGNEHTPINEFHPVTRTTSVNIKSSTNVKSSIILNLLVLGAGPDIFENSSYPVRKLMDSGGVYDPSNDGFGSINIVTFSPEYEYTFNDISGGYNSSTESFIADPAISLAHELIHALHGLYGARGVTYKETIKVKQAPLMIAEKPIRLEEFLTFGGQDLNIITSAMKEKIYNNLLANYEKIATRLSRVNSAPPEYDINEYKDYFQWKYGLDKNADGSYTVNENKFNEIYKKLYSFTEIDLANKFKVKCRNTYFIKYGFLKVPNLLDDDIYTVSEGFNIGNLAVNNRGQNIKLNPKIIDSIPDKGLVEKIVKFCKSVIPRKGTKAPPRLCIRVNNRELFFVASESSYNENDINTPKEIDDTTNLNNNYRNNLDEVILDYNSETIPQISNQTLNTLVQDDSYVPRYDSNGTSEIEEHNVVDLNVFFYLHAQKVPEGETNISLTSSIDTALSEESQVYTFFSSEFINTINKPVHAALFISWINQVIRDFTTEATQKSTFDKIADISLVVPYVGLALNIGNEVQKENFKEAFELLGAGILLEFVPELLIPTILVFTIKSFIGSSENKNKIIKAINNSLMERETKWKEIYSWIVSNWLTRINTQFNKRKEQMYQALQNQVDAIKTVIEYKYNNYTSDERNRLESEYNINNIREELNKKVSLAMENIERFITESSIFYLMKLINEAKVSKLREYDEGVKEYLLDYISEHRSILGNSVQELNDLVTSTLNNSIPFELSSYTNDKILILYFNKLYKKIKDNSILDMRYENNKFIDISGYGSNISINGDVYIYSTNRNQFGIYSSKPSEVNIAQNNDIIYNGRYQNFSISFWVRIPKYFNKVNLNNEYTIIDCIRNNNSGWKISLNYNKIIWTLQDTAGNNQKLVFNYTQMISISDYINKWIFVTITNNRLGNSRIYINGNLIDEKSISNLGDIHVSDNILFKIVGCNDTRYVGIRYFKVFDTELGKTEIETLYSDEPDPSILKDFWGNYLLYNKRYYLLNLLRTDKSITQNSNFLNINQQRGVYQKPNIFSNTRLYTGVEVIIRKNGSTDISNTDNFVRKNDLAYINVVDRDVEYRLYADISIAKPEKIIKLIRTSNSNNSLGQIIVMDSIGNNCTMNFQNNNGGNIGLLGFHSNNLVASSWYYNNIRKNTSSNGCFWSFISKEHGWQEN

What was measured:
Assay in all cases: cell-based or functional assay
[1] = biological target: H6tHA1S(146-206)-NL-S (Macaca mulatta (Rhesus macaque)) (UniProt P60877)
[2] = biological target: H6tHA1S(146-206)-sfGFP-S (Macaca mulatta (Rhesus macaque)) (UniProt P60877)
[3] = biological target: H6tHAtev1S(146-206)LS D179KA199R (Photinus pyralis) (UniProt P60877)
[4] = biological target: H6tHAtev1S(140-197)L (Photinus pyralis) (UniProt P60877)
[5] = biological target: H6tHAtev1S(146-206)LS D179KN196QQ197NR198K (Photinus pyralis) (UniProt P60877)
[6] = biological target: H6tHA1V(2-94)-sfGFP-S (Bos taurus (Bovine)) (UniProt P63026)
Sequence of UniProt P63026 (P63026 2-94): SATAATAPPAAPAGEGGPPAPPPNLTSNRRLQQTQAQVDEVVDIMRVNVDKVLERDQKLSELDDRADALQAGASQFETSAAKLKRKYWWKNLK

[7] = biological target: H6tHAtev1V(60-94)L (Photinus pyralis)
[8] = biological target: H6tHA1V(2-94)-sfGFP-S (Bos taurus (Bovine)) (UniProt P63026); remark: listed apart in the source

| Molecule | EC50 of cleavage of generic substrate with reporter NL, JDZ-buffer, 1 h 37°C [1] | EC50 of cleavage of generic substrate with reporter sfGFP, JDZ-buffer, 1 h 37°C [2] | EC50 of substrate cleavage, endopeptidase assay, JDZ-buffer, 1 h 37°C [3] | EC50 of substrate cleavage, endopeptidase assay, JDZ-buffer, 1 h 37°C [5] | EC50 of cleavage of generic substrate with reporter sfGFP, JDZ-buffer, 1 h 37°C [6] | further results |
| --- | --- | --- | --- | --- | --- | --- |
| BoNT/A1 (recombinant, activated full-length) (from UniProt P0DPI1 2-1296) (enzyme) | 0.01 nM | 0.03 nM | 0.4 nM |  |  |  |
| BoNT/E1 (recombinant, activated full-length) (from UniProt Q00496 2-1251) (enzyme) | 0.2 nM | 0.1 nM | 1000 nM | 1000 nM |  | EC50 of substrate cleavage, endopeptidase assay, JDZ-buffer, 1 h 37°C [4]: 0.2 nM |
| BoNT/B1 (recombinant, activated full-length) (from UniProt B1INP5 2-1291) (enzyme) |  |  |  |  | 0.02 nM | EC50 of substrate cleavage, endopeptidase assay, JDZ-buffer, 1 h 37°C [7]: 0.6 nM; fold increase of EC50 relative to generic H6tHAtev1V(2-94)LS [7]: 10 fold |
| BoNT/D (recombinant, activated full-length) (from UniProt P19321 2-1276) (enzyme) |  |  |  |  | 1 nM |  |
| BoNT/C (recombinant, activated full-length) (from UniProt P18640 2-1291) (enzyme) | 10 nM | 20 nM | 200 nM | 0.6 nM |  | fold decrease of EC50 relative to generic H6tHAtev1S(146-206)LS [5]: 16 fold |
| B1 |  |  |  |  |  | EC50 of cleavage of generic substrate with reporter sfGFP, JDZ-buffer, 1 h 37°C [8]: 0.06 nM |
